In the oligonucleotide strings, read from the 5' end, every base follows the letter of its sugar. An asterisk marks phosphorothioate; unmarked linkages are phosphodiester. Other units and linkages are bracketed, terminal groups are in braces. A string of capitals states the bases alone. r = 2'-OH (RNA); f = 2'-fluoro
Key:
[1] = test system: human prostate cancer cell line PC-3; assay: Flow cytometric-based screening assay for internalization in PC-3 cells; format: cell-based
Description: In illustrating a screening process for internalization, from clones selected for further analysis from the selection process, a flow cytometric-based assay for binding and/or internalization was utilized. Typically, the assay was performed by incubating 200 nM of each clone with 5×10^5 target cells in 100 ul PBS containing 0.5% bovine serum albumin (BSA) in a 13 mm tube for 2 hours @ 37° C. A first portion of the cells was then treated with RNAse to remove any of the clone remaining bound to the surface of the cells, so as to allow detection and quantitation of internalized clone (i.e., measuring internalization). In parallel, a second portion of the cells was treated with PBS containing 0.5% BSA (lacking added RNase activity to enzymatically cleave […]), so as to allow detection and quantitation of clone remaining bound to the cell surface, as well as internalized clone (i.e., measuring binding and internalization). Following further washes with phosphate-buffered saline, the cells were fixed in 1% formaldehyde and then subjected to analysis on a flow cytometer using commercially available analysis software. In performing analyses by flow cytometry, several assay controls were used. As an assay control representing either no or background (e.g., non-specific) internalization, an RNA molecule resulting from a selection process for binding a molecule not detectably expressed on target cells was used. The assay control RNA molecule was further modified with Alexa 647, and then used for further characterization of clones from the selection process described herein. For ease of description and reference for this Example, this assay control RNA molecule is referred to herein as Negative Control 1 (see, e.g., Table 5). As an additional assay control that represents either no or background internalization, used was an RNA molecule from the starting library which was chosen from the library prior to beginning a selection method described herein, and that was further modified with Alexa 647. This assay control RNA molecule is referred to herein as Negative Control 2 (see, e.g., Tables 5, 7, and 8). Additionally, fluorescence of unstained cells was measured, as a control, to quantitate any background fluorescent properties of the cells themselves as encountered in analyses by flow cytometry (“Unstained”), as opposed to fluorescent signal mediated by the RNA molecules further modified to include Alexa 647. Shown in Table 5 are the results of analyses by flow cytometry in which measured and quantitated was the ability of clones, selected on the basis of sequence convergence, to internalize into target cells represented by human prostate cancer cell line PC-3. The units of fluorescence in Table 5 represent mean fluorescence (“Mean”). The fold increase (determined by dividing the mean fluorescence of a clone by the mean fluorescence of unstained cells) is an indicator of the ability of a clone, or a clone which has been further modified to include an effector moiety, to internalize into the target cells (Table 5; “Fold Increase”).
The truncations, illustrated in Table 6, were each further modified with a detectable moiety, Alexa 647, and analyzed by a flow cytometric-based screening assay for internalization using the methods outlined in Example 2, to determine minimal sequences that maintain the full ability to internalize into human prostate cancer cells. Shown in Table 7 are the results of analyses by flow cytometry in which measured and quantitated was the ability of each truncation to internalize into target cells represented by human prostate cancer cell line PC-3. The units of fluorescence in Table 7 represent mean fluorescence intensity (“Mean”). […]

[2] = test system: K562 human chronic myelogenous leukemia; assay: Flow cytometric binding and internalization assay, K562; format: cell-based; details: K562, malignant
Description: (§1) In illustrating a screening process for internalization, from clones selected for further analysis from the selection process, a flow cytometric-based assay for binding and/or internalization was utilized. Typically, the assay was performed by incubating 200 nM of each clone with 5×10^5 target cells in 100 ul PBS containing 0.5% bovine serum albumin (BSA) in a 13 mm tube for 2 hours @ 37° C. A first portion of the cells was then treated with RNAse to remove any of the clone remaining bound to the surface of the cells, so as to allow detection and quantitation of internalized clone (i.e., measuring internalization). In parallel, a second portion of the cells was treated with PBS containing 0.5% BSA (lacking added RNase activity to enzymatically cleave […]), so as to allow detection and quantitation of clone remaining bound to the cell surface, as well as internalized clone (i.e., measuring binding and internalization). […] Additionally, fluorescence of unstained cells was measured, as a control, to quantitate any background fluorescent properties of the cells themselves as encountered in analyses by flow cytometry (“Unstained”), as opposed to fluorescent signal mediated by the RNA molecules further modified to include Alexa 647. […] The units of fluorescence in Table 5 represent mean fluorescence (“Mean”). […]

[3] = test system: A431 human epidermoid carcinoma; assay: Flow cytometric binding and internalization assay, A431; format: cell-based; details: A431, malignant
Description: as §1

[4] = test system: DU145 human prostate cancer, metastatic; assay: Flow cytometric binding and internalization assay, DU145; format: cell-based; details: DU145, malignant
Description: as §1

[5] = test system: 22Rv1 Human prostate xenografts in mice; assay: Flow cytometric binding and internalization assay, 22Rv1; format: cell-based; details: 22Rv1, malignant
Description: as §1

[6] = test system: LNCaP lymph node metastatic lesion of human prostate adenocarcinoma; assay: Flow cytometric binding and internalization assay, LNCaP; format: cell-based; details: malignant
Description: as §1

[7] = test system: A549 human lung adenocarcinoma; assay: Flow cytometric binding and internalization assay, A549; format: cell-based; details: A549, malignant
Description: as §1

[8] = test system: MCF7 human breast adenocarcinoma; assay: Flow cytometric binding and internalization assay, MCF7; format: cell-based; details: MCF7, malignant
Description: as §1

[9] = test system: T47D human ductal breast epithelial tumor cell line; assay: Flow cytometric binding and internalization assay, T47D; format: cell-based; details: malignant
Description: as §1

[10] = test system: SKBR3 human breast adenocarcinoma; assay: Flow cytometric binding and internalization assay, SKBR3; format: cell-based; details: SKBR3, malignant
Description: as §1

[11] = test system: HCC1937 human, triple negative, primary breast carcinoma; assay: Flow cytometric binding and internalization assay, HCC1937; format: cell-based; details: HCC1937, malignant
Description: as §1

[12] = test system: HS578T Human, triple negative, highly metastatic breast carcinoma; assay: Flow cytometric binding and internalization assay, HS578T; format: cell-based; details: malignant
Description: as §1

[13] = test system: HCC1143 human, triple negative, breast carcinoma; assay: Flow cytometric binding and internalization assay, HCC1143; format: cell-based; details: HCC1143, malignant
Description: as §1

[14] = test system: WIL-2 B lymphoblastoid cell line transformed with Epstein Barr virus; assay: Flow cytometric binding and internalization assay, WIL-2; format: cell-based, human; details: WIL-2, transformed cells
Description: as §1

[15] = test system: PrEC human primary prostate epithelial cells; assay: Flow cytometric binding and internalization assay, PrEC; format: cell-based; details: nonmalignant
Description: as §1

[16] = test system: PBMC (unstim) human, unstimulated peripheral blood mononuclear cells; assay: Flow cytometric binding and internalization assay, PBMC; format: cell-based; details: nonmalignant
Description: as §1

[17] = test system: human primary mammary epithelial cells; assay: Flow cytometric binding and internalization assay, mammary epithelial cells; format: cell-based; details: nonmalignant
Description: as §1

[18] = Table 7, truncations modified with Alexa 647, PC-3

B1: GGGAGGACGAUGCGGUACUUUCGGGCUUUCGGCAACAUCAGCCCCUCAGGACGCAAUUUCUCCUACUGGGAUAGGUGGAUUAU (nucleic acid)
chain: rGrGrGrArGrGrAfCrGrAfUrGfCrGrGfUrAfCfUfUfUfCrGrGrGfCfUfUfUfCrGrGfCrArAfCrAfUfCrArGfCfCfCfCfUfCrArGrGrAfCrGfCrArAfUfUfUfCfUfCfCfUrAfCfUrGrGrGrAfUrArGrGfUrGrGrAfUfUrAfU
modifications: Alexa 647 label via hybridized DNA oligo, further chemistry not fully specified
notes: tested hybridized to Alexa647 DNA oligo
internalization into cells (conclusion from Table 5) ([1]; PC-3, in words): mediate internalization into cells
Fold Increase (mean fluorescence of clone / unstained cells) ([1]; Table 5, 200 nM Alexa 647-modified clone, 2 hours @ 37° C., PC-3): 8.3
Mean (mean fluorescence) ([1]; Table 5, 200 nM Alexa 647-modified clone, 2 hours @ 37° C., flow cytometry, PC-3): 665
Fold increase (mean fluorescence intensity / unstained cells) [1, 18]: 11.3
Mean (mean fluorescence intensity) [1, 18]: 907
Fold increase ([1]; Table 9, PC3, malignant): 9.4
Fold increase [2]: 23.2
Fold increase [3]: 6.9
Fold increase [4]: 6.1
Fold increase [5]: 14.8
Fold increase [6]: 6.1
Fold increase [7]: 3.7
Fold increase [8]: 31.0
Fold increase [9]: 25.8
Fold increase [10]: 14.3
Fold increase [11]: 11.8
Fold increase [12]: 9.8
Fold increase [13]: 2.1
Fold increase [14]: 20.6
Fold increase [15]: 2.6
Fold increase [16]: 2.4
Fold increase [17]: 5.7
